Reference: PMC12435366, “Maleic anhydride derived diphosphines: adaptable chelators for receptor-targeted ^99mTc, ^64Cu and ^188Re radiotracers” (Chemical Science, 2025)

Assays:
[1] = tested on: DU145-PSMA+ prostate cancer xenografts; type: in vivo, mice; details: for tumour delineation in SPECT/CT scans: male SCID/Beige mice bearing DU145-PSMA+ xenografts, SPECT 15 to 120 min post-injection; for clearance from blood pool (SPECT/CT): mouse, in vivo
Experimental: (§1) The biodistribution of [^99mTcO2(DP^An-PSMAt)2]^+ and [^99mTcO2(DP^MEP-PSMAt)2]^+ was studied using SPECT/CT imaging and ex vivo biodistribution methods. In these studies, [^99mTcO2(DP^An-PSMAt)2]^+ and [^99mTcO2(DP^MEP-PSMAt)2]^+ were used directly from kit-based formulations, without further purification, mimicking procedures used in clinical radiopharmacies and nuclear medicine departments. Mice were injected with [^99mTcO2(DP^An-PSMAt)2]^+ or [^99mTcO2(DP^MEP-PSMAt)2]^+ (4–5 MBq), containing 3 μg (2.6 nmol) of DP^An-PSMAt or 3.5 μg (2.6 nmol) of (DP^MEP-PSMAt) via the tail-vein, and culled 2 h post-injection, followed by dissection, organ/tissue weighing and counting.
SPECT/CT studies were undertaken in male SCID/Beige mice bearing DU145-PSMA+ prostate cancer xenografts administered [^99mTcO2(DP^An-PSMAt)2]^+ and [^99mTcO2(DP^MEP-PSMAt)2]^+. SPECT images were acquired from 15 to 120 min post-injection of radiotracer. […]
4.10 In vivo imaging and biodistribution (DU145-PSMA+ and LNCaP)
Preparation of tumour-bearing mice: All animal experiments were ethically reviewed by an Animal Welfare & Ethical Review Board at either King’s College London or Bart’s Cancer Institute and carried out in accordance with the Animals (Scientific Procedures) Act 1986 UK Home Office regulations governing animal experimentation. Subcutaneous prostate cancer xenografts were produced in SCID/beige mice (male, 7–12 weeks old) by injecting 4 × 10^6 DU145-PSMA+ or DU145 cells suspended in PBS (100 μL) on the right shoulder. Imaging and biodistribution studies were performed once a tumour had reached 5–10 mm in diameter (3–4 weeks after injection). Subcutaneous LNCaP prostate cancer xenografts were produced in athymic nude (Crl:NU(NCr)-Foxn1nu) mice (male, 6–7 weeks old) by injecting 5 × 10^6 LNCaP cells suspended in PBS:matrigel (1:1, 200 μL) on the right flank.
Biodistribution studies using 99mTc radiotracers were performed once a tumour had reached 150– 300 mm3 in volume (2–7 weeks after injection).
SCID/beige mice bearing DU145-PSMA+ prostate cancer tumour xenografts
SPECT/CT scanning and biodistribution studies: The 99mTc radiotracers (3.9–4.5 MBq, 3 mice per group, containing DPAn-PSMAt = 3.0 µg or DPMEP-PSMAt = 3.5 µg) were administered via tail vein injection under isoflurane anaesthesia. […]
in helical scanning mode). At 2 h post-injection, the animals were euthanized by cervical dislocation, organs/tissues harvested and weighed, and radioactivity counted using a gamma […]
ii. […] After scanning, the organs/tissues were harvested, weighed and radioactivity counted […]
Urine was collected and directly analysed by reverse-phase radio-HPLC (method 2). Data were analysed in GraphPad Prism 9 (version 9.1.1) and expressed as mean ± standard deviation (SD). […]

PSMA-expressing tumours = assay: Ex vivo biodistribution across both mouse models (DU145-PSMA+ and LNCaP xenografts); type: in vivo, mice; details: both tracers, 2 h post-injection
Experimental: as §1, with “counting. […]” for “counting.”
For all animals, significant concentrations of ^99mTc radioactivity (2–5 %ID g^−1) were measured in PSMA-expressing tumours 2 h post-injection, and although ^99mTc tumour concentrations were consistently higher for animals administered [^99mTcO2(DP^An-PSMAt)2]^+, there were no statistically significant differences between [^99mTcO2(DP^An-PSMAt)2]^+ and [^99mTcO2(DP^MEP-PSMAt)2]^+ in either mouse model. For both tracers, there were also significant concentrations of ^99mTc radioactivity in the spleen, which is known to express low levels of PSMA and accumulate PSMA-targeted radiotracers,[9,10] and the liver. […]

COc1ccc(P(/C(C(=O)O)=C(/C(=O)NCCOCCOCCOCCOCCC(=O)NCCCC[C@H](NC(=O)N[C@@H](CCC(=O)O)C(=O)O)C(=O)O)P(c2ccc(OC)cc2)c2ccc(OC)cc2)c2ccc(OC)cc2)cc1 [[^99mTcO2(DP^An-PSMAt)2]^+, metal not drawn]
tumour delineation in SPECT/CT scans [1]: could be delineated | clearance from blood pool (SPECT/CT) [1]: rapidly cleared from the blood pool via a renal pathway | ^99mTc radioactivity concentration in kidneys (PSMA-expressing tumours): 40–90 %ID g^−1

COCCOc1ccc(P(/C(C(=O)O)=C(/C(=O)NCCOCCOCCOCCOCCC(=O)NCCCC[C@H](NC(=O)N[C@@H](CCC(=O)O)C(=O)O)C(=O)O)P(c2ccc(OCCOC)cc2)c2ccc(OCCOC)cc2)c2ccc(OCCOC)cc2)cc1 [[^99mTcO2(DP^MEP-PSMAt)2]^+, metal not drawn]
tumour delineation in SPECT/CT scans [1]: could be delineated | clearance from blood pool (SPECT/CT) [1]: rapidly cleared from the blood pool via a renal pathway | ^99mTc radioactivity concentration in kidneys (PSMA-expressing tumours): 40–90 %ID g^−1
